From patent US6368809 come the findings set out here.

The target in the experiment is HA-epitope tagged E2F-4 (human) (UniProt Q16254). The experiment can be described thus: cell-based or functional assay.
Sequence of UniProt Q16254 (Q16254 whole entry): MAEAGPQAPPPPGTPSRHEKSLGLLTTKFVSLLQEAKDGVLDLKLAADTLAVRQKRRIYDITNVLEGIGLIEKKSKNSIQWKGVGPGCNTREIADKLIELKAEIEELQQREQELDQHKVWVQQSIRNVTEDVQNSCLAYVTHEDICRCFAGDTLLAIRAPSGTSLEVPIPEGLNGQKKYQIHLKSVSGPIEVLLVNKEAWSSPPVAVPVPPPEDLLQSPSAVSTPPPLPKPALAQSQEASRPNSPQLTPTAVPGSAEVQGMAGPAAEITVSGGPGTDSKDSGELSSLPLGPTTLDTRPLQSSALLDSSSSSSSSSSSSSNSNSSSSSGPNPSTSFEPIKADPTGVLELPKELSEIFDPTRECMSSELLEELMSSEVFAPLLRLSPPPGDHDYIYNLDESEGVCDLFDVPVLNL

“HA-tagged p107 (from UniProt P28749 1-1068)” came in with an E2F-4 half life (pulse chase, immunoprecipitation with 12CA5, phosphorimager; free E2-F4 approximately 2-3 hours) of 8 h.
